Publication PMC3242506 (Biochemical Journal, 2011)

What was measured:
cross-linking [1] = target: the molecule itself; assay: cross-linking
[2] = target: the molecule itself; assay: SDS/PAGE and Western blot without cross-linker
cross-linking [3] = target: the molecule itself; assay: cross-linking; remark: listed apart in the source

| Protein | stoichiometry N (cross-linking [1]) | stoichiometry N [2] | stoichiometry N (cross-linking [3]) |
| --- | --- | --- | --- |
| domain II of human TPC2 (TPC2^422–752) (domain or fragment, UniProt Q8NHX9 422-752, looked up) LQSAQFLFGHYYFDYLGNLIALANLVSICVFLVLDADVLPAERDDFILGILNCVFIVYYLLEMLLKVFALGLRGYLSYPSNVFDGLLTVVLLVLEISTLAVYRLPHPGWRPEMVGLLSLWDMTRMLNMLIVFRFLRIIPSMKLMAVVASTVLGLVQNMRAFGGILVVVYYVFAIIGINLFRGVIVALPGNSSLAPANGSAPCGSFEQLEYWANNFDDFAAALVTLWNLMVVNNWQVFLDAYRRYSGPWSKIYFVLWWLVSSVIWVNLFLALILENFLHKWDPRSHLQPLAGTPEATYQMTVELLFRDILEEPGEDELTERLSQHPHLWLCR | 2.2 |  |  |
| domain II of human TPC1 (TPC1^427–816) (domain or fragment, N-glycosylated (bands sensitive to PNGase F)) not shown | 2.2 | 2 |  |
| domain I of human TPC2 (TPC2^1–339) (domain or fragment, UniProt Q8NHX9 1-339, looked up) MAEPQAESEPLLGGARGGGGDWPAGLTTYRSIQVGPGAAARWDLCIDQAVVFIEDAIQYRSINHRVDASSMWLYRRYYSNVCQRTLSFTIFLILFLAFIETPSSLTSTADVRYRAAPWEPPCGLTESVEVLCLLVFAADLSVKGYLFGWAHFQKNLWLLGYLVVLVVSLVDWTVSLSLVCHEPLRIRRLLRPFFLLQNSSMMKKTLKCIRWSLPEMASVGLLLAIHLCLFTMFGMLLFAGGKQDDGQDRERLTYFQNLPESLTSLLVLLTTANNPDVMIPAYSKNRAYAIFFIVFTVIGSLFLMNLLTAIIYSQFRGYLMKSLQTSLFRRRLGTRAAFE | 2.3 | 2 |  |
| first four TM regions of human TPC1 (TPC1^1–225) (domain or fragment) not shown |  |  | 2 |
| domain I of human TPC1 (TPC1^1–347) (domain or fragment) not shown | 2.1 |  |  |
